This note sets out measurements from patent US20250034266A1 (ZAI LAB SHANGHAI, published 2025).

Residue numbers refer to the chain shown, from its start.

Sequences and labels used below:
B1: 204A2G12 (antibody, V domains shown)
VH: DVQLQESGPGLVKPSQSLSLTCSVTGYSITSGYYWNWIRQFPGNKLEWMGYISYDGTNNYNPSLKNRISITRDTSKNQFFLKLTSVTTEDTATYYCARQVGLRRAWFAYWGQGTLVTVSA
VL: DIQMTQSSSFLSVSLGGRVTITCKASDHINYWLAWYQQKPGNAPRLLISGATSLETGVPSRFSGSGSGKDYTLTITSLQNEDVATYYCHQYWSTPTFGSGTKLEIK
notes: Murine hybridoma antibody
B2: 164G10D6 (antibody, V domains shown)
VH: EVQLVESGGGLVQPKGSLKLSCAASGFTFNTYAMNWVRQAPGKGLEWVARIRSKSNFYATYYADSVKDRFTISRDDSQDMLYLQMNILKTEDTAIYYCVRGRDYGSSYAMDYWGQGTSVTVSS
VL: DIVMTQAAPSVPVTPGESVSISCRSSKSLLHSNGNTYLYWFLQRPGQSPQLLIYRMSNLASGVPDRFSGSGSGTAFTLRISRVEAEDVGVYYCMQHLEYPLTFGAGTKLELK
notes: Murine hybridoma antibody; also called 164G10C6
B3: 262C2G7 (antibody, V domains shown)
VH: DVHLQESGPGLVKPSQSLSLTCSVTGYSITSGYYWNWIRQFPGNKLEWMGYISYDGSNNYNPSLKNRISITRDISKNQFFLKLNSVTTEDTATYYCARQIGLRRGAMDYWGQGTSVTVSS
VL: DIQMTQSSSYLSVSLGGRVTITCKASDHINNWLAWYQQKPGNAPRLLISGSTSLKAGVASRFSGSGSGKDYTLTITSLQTEDVATYYCQQYWGIPFTFGGGTKLEIK
notes: Murine hybridoma antibody
B4: 273H2G6 (antibody, V domains shown)
VH: B3 VH with H3Q, I100V
VL: B3 VL with T74S, G93S, F96Y
notes: Murine hybridoma antibody
B5: 348E2D11 (antibody, V domains shown)
VH: QVQLVETGGGLVRPGNSLKLSCVTSGFSFSNYRMHWLRQPPGKRLEWIAVITVKSDNYGANYAESVKGRFTISRDDSKSSVYLQMNRLREEDTATYYCSSLGRVAYWGQGTLVTVSA
VL: DIVMTQSQKFMFTSVGDRVSVTCKASQNVDTNVVWYQQKPGQSPKALIYSASSRYSGVPDRFTGSGSGTDFTLTISNVQSEDLAEYFCQQHNSFPLTFGAGTKLELI
notes: Murine hybridoma antibody

T1 sequence (P51685 whole entry, the tested form may be a part): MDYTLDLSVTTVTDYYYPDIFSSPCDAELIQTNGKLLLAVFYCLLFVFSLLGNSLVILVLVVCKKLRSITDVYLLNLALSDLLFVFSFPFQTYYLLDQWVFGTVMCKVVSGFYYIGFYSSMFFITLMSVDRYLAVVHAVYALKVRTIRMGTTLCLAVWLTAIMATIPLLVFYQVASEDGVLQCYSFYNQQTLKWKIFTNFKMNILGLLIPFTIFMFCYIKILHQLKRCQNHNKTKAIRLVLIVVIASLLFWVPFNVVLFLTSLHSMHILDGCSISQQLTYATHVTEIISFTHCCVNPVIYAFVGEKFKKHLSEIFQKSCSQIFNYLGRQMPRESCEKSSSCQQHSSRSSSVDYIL

One test addresses T1, human CCR8 (human, UniProt P51685 1-355).
T1 construct: whole, on cells; In the β-arrestin assay CCR8 is fused to the ProLink (PK) tag; also called hCCR8; CHO-K1-human CCR8
As to the kind of experiment: FACS competition, hybridoma supernatant with 4 nM AF647-human CCL1 on human CCR8 cells.
Turning to B1, the “Inhibition Rate (%)” value came to 94.7%.

Turning to B2, the “Inhibition Rate (%)” value came to 99.4%.

Turning to B3, the “Inhibition Rate (%)” value came out at 92.4%.

On to B4, for which the “Inhibition Rate (%)” value is 90.2%.

Take B5: the “Inhibition Rate (%)” value was 100%.

For the next test, the target named is T1, human CCR8. As to the kind of experiment: FACS on CHO-K1-human CCR8 cells. On the procedure: (§1) The binding affinities of purified antibodies were determined on human CCR8 and cynomolgus CCR8 over-expressing cells. Briefly, CFSE (Life technology, Cat #: C34554) labeled CHO-K1-human CCR8 cells mixed with CHO-K1 cells, CFSE labeled HEK293-human CCR8 cells mixed with H1EK293 cells, or CFSE labeled H1EK293-cynomolgus CCR8 cells mixed with HTEK293 cells were used in the assay. The mix ratio was 1:1. A total of 5×10⁴ mixed cells for each well were seeded in 96-well plate and washed by FACS buffer (DPBS containing 10% FBS) once. Cells were incubated by series diluted purified hybridoma antibodies for 1 hour at 4° C. Antibodies were prepared with 3-fold serial dilution ranging from 200 nM to 0.003 nM in FACS buffer. After primary antibody incubation, cells were washed by FACS buffer for three times. Then, cells were stained with secondary antibody (Alexa Flu647-conj gated rabbit anti-mouse IgG, Jackson ImmunoResearch, #315606046) at 1:600 dilution in FACS buffer and incubated for 0.5 hour at 4° C. […] FlowJo software was used for analysis. Data was plotted as the logarithm of antibody concentration versus mean fluorescence signals. EC₅₀ values were calculated in GraphPad Prism 8 (GraphPad Software) using a log(agonist) vs. response-Variable slope (4 parameters) curve fit. […] The EC₅₀s of the selected antibodies on human CCR8 are less than 5 nM except those of 262C2G7 and 234G9C12. The EC₅₀s of the selected antibodies on cynomolgus CCR8 are less than 1 nM except that of 348E2D11 (Table 8).
As a reminder, the EC50 is the midpoint of the concentration-response curve. Read a low EC50 as higher potency in that assay. With B1, the EC50 amounted to 0.334 nM and the “Max MFI” value amounted to 10200 MFI.

B2: the EC50 worked out at 0.652 nM and the “Max MFI” value came to 54900 MFI.

For B3, the midpoint of the response, the EC50, lay at 126 nM and the “Max MFI” value amounted to 86400 MFI.

For B4, a half-maximal effect (EC50) was put at 0.137 nM and the “Max MFI” value is 8490 MFI.

B5: the EC50 came to 0.397 nM and the “Max MFI” value was found to be 51500 MFI.

The target of another test is T2, cynomolgus CCR8 (cynomolgus, UniProt G7NYJ2 1-355).
T2 construct: whole, on cells; also called HEK293-Cynomolgus CCR8; ExpiCHO-S cynomolgus CCR8
T2 sequence (G7NYJ2 entry or part of it): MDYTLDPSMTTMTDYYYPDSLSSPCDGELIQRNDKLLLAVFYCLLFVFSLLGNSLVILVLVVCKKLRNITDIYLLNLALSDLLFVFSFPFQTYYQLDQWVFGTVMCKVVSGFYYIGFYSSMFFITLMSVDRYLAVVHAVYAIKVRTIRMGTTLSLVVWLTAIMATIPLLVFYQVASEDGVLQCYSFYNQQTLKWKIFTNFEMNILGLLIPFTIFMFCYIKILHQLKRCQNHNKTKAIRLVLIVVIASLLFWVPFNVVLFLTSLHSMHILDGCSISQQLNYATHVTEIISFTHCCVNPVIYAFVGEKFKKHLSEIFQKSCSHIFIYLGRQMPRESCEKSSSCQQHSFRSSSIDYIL
As to the kind of experiment: FACS, hybridoma supernatant on cynomolgus CCR8 cells. As for the experimental part:
(§2) Binding of hybridoma supernatant on CHO-K1-human CCR8 and ExpiCHO-S cynomolgus CCR8 cells. A total of 660 96-well plates were seeded and screened by FACS binding from the hybridoma derived from immunized animals.
(§3) To obtain antibodies cross-reactive to human and cynomolgus CCR8, hybridomas from mice immunized with human and cynomolgus CCR8 DNAs were screened by FACS. Briefly, 50 μL ExpiCHO-S cells transfected with human CCR8 or cynomolgus CCR8 (cell density: 2×10⁶ cells/mL, viability>90%) were incubated with equal volume hybridoma supernatant in 96 well plate (Corning) at 4° C. for 1 hour. […] Finally, the mixture was washed and resuspended with FACS buffer, and subjected to FACS analysis on BD FACS Celesta.
In general terms: A flow cytometer gives signals particle by particle.
In the case of B1, the “Binding Ratio (GFP + MFI)/(GFP - MFI)” value is 133.

Take B2: the “Binding Ratio (GFP + MFI)/(GFP - MFI)” value stood at 102.

Regarding B3, the “Binding Ratio (GFP + MFI)/(GFP - MFI)” value turned out to be 99.8.

Consider B4, for which the “Binding Ratio (GFP + MFI)/(GFP - MFI)” value came to 112.

B5: the “Binding Ratio (GFP + MFI)/(GFP - MFI)” value came out at 74.2.

The next test addresses T1, human CCR8. Kind of test: FACS, hybridoma supernatant on CHO-K1-human CCR8 cells. On the procedure:
as §2, §3
B1: the “Binding Ratio (GFP + MFI)/(GFP - MFI)” value was determined as 145.

For B2, the “Binding Ratio (GFP + MFI)/(GFP - MFI)” value turned out to be 198.

In the case of B3, the “Binding Ratio (GFP + MFI)/(GFP - MFI)” value turned out to be 404.

As for B4, the “Binding Ratio (GFP + MFI)/(GFP - MFI)” value came to 120.

In the case of B5, the “Binding Ratio (GFP + MFI)/(GFP - MFI)” value turned out to be 169.

For another test, the target named is T2, cynomolgus CCR8. As to the kind of experiment: FACS on HEK293-Cynomolgus CCR8 cells. On the procedure:
as §1
Consider B1, for which the EC50 came out at 0.163 nM and the “Max MFI” value worked out at 3200 MFI.

Regarding B2, the EC50 amounted to 0.32 nM and the “Max MFI” value was determined as 8290 MFI.

Consider B3, for which the EC50 worked out at 0.216 nM and the “Max MFI” value amounted to 2940 MFI.

With B4, it took 0.154 nM to reach a half-maximal effect (EC50) and the “Max MFI” value stood at 3500 MFI.

B5: the “Max MFI” value came to 7580 MFI.

Another test deals with T1, human CCR8. Kind of test: FACS on HEK293-human CCR8 cells. On the procedure:
as §1
As to B1, a half-maximal effect (EC50) was put at 0.142 nM and the “Max MFI” value was 3620 MFI.

As to B2, a half-maximal effect (EC50) was put at 0.277 nM and the “Max MFI” value is 11900 MFI.

As for B3, the EC50 came out at 0.139 nM and the “Max MFI” value amounted to 7210 MFI.

Consider B4, for which it took 0.149 nM to reach a half-maximal effect (EC50) and the “Max MFI” value amounted to 4680 MFI.

Take B5: the EC50 came to 0.111 nM and the “Max MFI” value stood at 11000 MFI.
